One molecule from publication PMC4081097 can be followed below.

The target in this series is T1, AbaSI-C3S (Acinetobacter baumannii SDF, UniProt B0VN39 1-321, C2S;C309S;C321S).
T1 sequence: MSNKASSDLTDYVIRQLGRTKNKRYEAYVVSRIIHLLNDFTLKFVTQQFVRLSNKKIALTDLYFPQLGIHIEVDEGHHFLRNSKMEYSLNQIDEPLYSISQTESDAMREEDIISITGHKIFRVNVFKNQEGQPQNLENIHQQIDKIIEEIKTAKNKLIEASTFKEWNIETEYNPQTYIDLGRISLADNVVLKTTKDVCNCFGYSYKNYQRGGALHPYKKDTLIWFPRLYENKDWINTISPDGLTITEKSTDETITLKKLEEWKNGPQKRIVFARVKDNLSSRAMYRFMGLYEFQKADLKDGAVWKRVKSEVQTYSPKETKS
Briefly: X-ray crystallography.

B1: 14+4 product DNA (dsDNA)
DNA 1: TGCTCGATACAATAGGCC
DNA 2: TATTGTATCGAGCA
modifications: 5hmC at top position 5
Turning to B1, the binding result is given as “binds”.
